Patent US20190284293A1 (Bristol-Myers Squibb, published 2019)
Numbering of substitutions follows the chain as printed. Several values for one entry are separate records, joined by “and”; a condition that tells them apart may be missing. Equal values may be shown once.

Columns and labels:
human CD73 on cells [1] = target: T1, human CD73 on cells (human, UniProt P21589 27-549); experiment: flow cytometry, FITC-mAb, human B cells, donor D329
T1 construct: Endogenous protein; also called endogenous CD73 on Calu6, NCI-H292, SK-MEL-24, human B and T cells
T1 sequence: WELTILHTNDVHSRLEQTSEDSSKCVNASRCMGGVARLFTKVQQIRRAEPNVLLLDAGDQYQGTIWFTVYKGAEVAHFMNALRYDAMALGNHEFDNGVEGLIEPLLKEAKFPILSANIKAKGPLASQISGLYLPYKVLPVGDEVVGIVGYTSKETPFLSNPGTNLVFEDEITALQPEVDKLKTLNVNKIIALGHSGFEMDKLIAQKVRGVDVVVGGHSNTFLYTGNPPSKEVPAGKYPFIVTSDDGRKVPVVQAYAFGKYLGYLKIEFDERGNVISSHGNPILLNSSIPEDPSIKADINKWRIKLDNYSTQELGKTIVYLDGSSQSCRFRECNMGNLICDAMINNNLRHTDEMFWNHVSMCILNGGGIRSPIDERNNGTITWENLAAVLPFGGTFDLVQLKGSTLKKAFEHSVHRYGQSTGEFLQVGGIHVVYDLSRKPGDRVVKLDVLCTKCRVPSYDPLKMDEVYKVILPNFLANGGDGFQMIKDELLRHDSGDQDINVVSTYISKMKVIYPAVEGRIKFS
Experimental: (§1) Binding of CD73.4 antibody to human B and T cells was also determined. Peripheral blood mononuclear cells (PBMC) were isolated with Lympholyte-H cell separation gradient media. […] Cells from both donors were pooled for the unstained and FMO (Fluorescence minus one) control samples.

human CD73 on cells [2] = target: T1, human CD73 on cells; experiment: flow cytometry, FITC-mAb, human B cells, donor D316
Experimental: as §1

[3] = target: T2, cyno CD73, Sino Biological Inc Cat#90192-C08H, bound to his-tag magnet beads (cynomolgus, UniProt P21589 27-547 (human entry)); experiment: cell-based or functional assay
T2 chain: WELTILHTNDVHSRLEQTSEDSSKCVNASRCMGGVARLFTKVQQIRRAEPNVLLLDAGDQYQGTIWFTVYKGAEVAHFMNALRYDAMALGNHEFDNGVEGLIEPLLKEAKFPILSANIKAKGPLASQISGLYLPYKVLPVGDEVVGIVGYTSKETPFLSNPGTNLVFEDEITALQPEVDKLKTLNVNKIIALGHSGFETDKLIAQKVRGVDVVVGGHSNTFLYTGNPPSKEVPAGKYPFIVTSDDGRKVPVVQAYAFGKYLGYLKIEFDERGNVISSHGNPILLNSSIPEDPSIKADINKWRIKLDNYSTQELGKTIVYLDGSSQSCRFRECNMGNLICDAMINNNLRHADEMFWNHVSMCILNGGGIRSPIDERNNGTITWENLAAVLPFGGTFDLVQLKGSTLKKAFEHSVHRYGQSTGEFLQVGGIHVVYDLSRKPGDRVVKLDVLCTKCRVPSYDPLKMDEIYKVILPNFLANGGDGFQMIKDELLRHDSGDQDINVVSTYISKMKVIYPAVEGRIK

human CD73 on cells [4] = target: T1, human CD73 on cells; experiment: cell-based or functional assay
human CD73 on cells [5] = target: T1, human CD73 on cells; experiment: flow cytometry, FITC-mAb, human T cells, donor D329
Experimental: as §1

human CD73 on cells [6] = target: T1, human CD73 on cells; experiment: flow cytometry, FITC-mAb, human T cells, donor D316
Experimental: as §1

human CD73 on cells [7] = target: T1, human CD73 on cells; experiment: cell-based or functional assay; remark: listed apart in the source
[8] = target: T3, cynomolgus CD73 on transfected CHO cells (cynomolgus, UniProt P21589 27-549 (human entry)); experiment: flow cytometry, CHO-cynoCD73 cells
T3 construct: also called CHO-cynoCD73; CHO-Cynomolgus CD73 transfectants
T3 chain: T1 sequence with M199T, T350A, V466I
Experimental: (§2) Titration binding curves were produced with CD73 antibodies on Calu6 (CD73 endogenous expressors; human pulmonary adenocarcinoma cell line), DMS114 (CD73 negative; human small cell lung cancer cell line), CHO-cynoCD73 (cynoCD73-transfected) and CHO-K1 (cynoCD73 negative), cells using Alexa Fluor® 647 Goat Anti-Human IgG (H+L) as a secondary antibody, Invitrogen Cat#A-21445, using the following method: 100000 cells were plated in 100 uL PBS+2% FBS per well and blocked for 20 min. Using a U-bottom 96-deep well plate, volumes of antibody and PBS+2% FBS were combined as dictated by Table 12 below.
(§3) An 8-point serial dilution was performed by diluting a sixth of the volume (90 uL) into […], PBS+2% FBS. The cell plate was spun down for 5 minutes at 1500 rpm. 100 uL of diluted antibody was added per well of the plate. 100 uL PBS+2% FBS were added to all other wells. […] The plates were spun down at 1500 rpm for 5 min and washed in 200 uL PBS+2% FBS per well. The plates were washed again, resuspended in 200 uL 2% FBS in PBS per well and the samples were run.

human CD73 on cells [9] = target: T1, human CD73 on cells; experiment: binding titration on Calu6 cells, average of 2-6 experiments
human CD73 on cells [10] = target: T1, human CD73 on cells; experiment: flow cytometry, Calu6 cells
Experimental: as §2, §3

[11] = target: T4, rhCD73 bound to his-tag magnet beads (human, UniProt P21589 27-547, limits assumed); experiment: cell-based or functional assay
T4 sequence: T2 chain with T199M, A350T, I466V

B1: CD73.4-IgG2-C219S (antibody)
heavy: QVQLVESGGGVVQPGRSLRLSCAASGFTFSNYGMHWVRQAPGKGLEWVAVILYDGSNKYYPDSVKGRFTISRDNSKNTLYLQMNSLRAEDTAVYYCARGGSSWYPDSFDIWGQGTMVTVSSASTKGPSVFPLAPCSRSTSESTAALGCLVKDYFPEPVTVSWNSGALTSGVHTFPAVLQSSGLYSLSSVVTVPSSNFGTQTYTCNVDHKPSNTKVDKTVERKSCVECPPCPAPPVAGPSVFLFPPKPKDTLMISRTPEVTCVVVDVSHEDPEVQFNWYVDGVEVHNAKTKPREEQFNSTFRVVSVLTVVHQDWLNGKEYKCKVSNKGLPAPIEKTISKTKGQPREPQVYTLPPSREEMTKNQVSLTCLVKGFYPSDIAVEWESNGQPENNYKTTPPMLDSDGSFFLYSKLTVDKSRWQQGNVFSCSVMHEALHNHYTQKSLSLSPG
light: not shown
notes: also called CD73.4-IgG2CS; CD73.4-IgG2.3
IC50 (human CD73 on cells [1]): 0.0777 nM | IC50 (human CD73 on cells [2]): 0.159 nM | EC50 (nM), enzymatic inhibition of cyno CD73 (bead-bound) [3]: 3.66 nM | CD73 Inhibition EC50 (nM), cAMP assay, Calu6 (human CD73 on cells [4]): 1.56 nM and 1.78 nM | IC50 (human CD73 on cells [5]): 0.135 nM | IC50 (human CD73 on cells [6]): 0.18 nM | EC50 Calu6 inhibition (human CD73 on cells [7]): 0.34 nM | EC50 [8]: 0.34 nM | EC50 (human CD73 on cells [9]): 0.49 nM | EC50 (human CD73 on cells [10]): 0.49 nM | EC50 (nM), inhibition of bead-bound human CD73 enzymatic activity [11]: 2.72 nM
